Measurements from the supplement of paper PMC6379048.

How the values were obtained:
Test in all cases: Kd (EC50 corrected by depletion factor)
[1] = target: T1, CPSF1 (UniProt Q10570)
T1 sequence: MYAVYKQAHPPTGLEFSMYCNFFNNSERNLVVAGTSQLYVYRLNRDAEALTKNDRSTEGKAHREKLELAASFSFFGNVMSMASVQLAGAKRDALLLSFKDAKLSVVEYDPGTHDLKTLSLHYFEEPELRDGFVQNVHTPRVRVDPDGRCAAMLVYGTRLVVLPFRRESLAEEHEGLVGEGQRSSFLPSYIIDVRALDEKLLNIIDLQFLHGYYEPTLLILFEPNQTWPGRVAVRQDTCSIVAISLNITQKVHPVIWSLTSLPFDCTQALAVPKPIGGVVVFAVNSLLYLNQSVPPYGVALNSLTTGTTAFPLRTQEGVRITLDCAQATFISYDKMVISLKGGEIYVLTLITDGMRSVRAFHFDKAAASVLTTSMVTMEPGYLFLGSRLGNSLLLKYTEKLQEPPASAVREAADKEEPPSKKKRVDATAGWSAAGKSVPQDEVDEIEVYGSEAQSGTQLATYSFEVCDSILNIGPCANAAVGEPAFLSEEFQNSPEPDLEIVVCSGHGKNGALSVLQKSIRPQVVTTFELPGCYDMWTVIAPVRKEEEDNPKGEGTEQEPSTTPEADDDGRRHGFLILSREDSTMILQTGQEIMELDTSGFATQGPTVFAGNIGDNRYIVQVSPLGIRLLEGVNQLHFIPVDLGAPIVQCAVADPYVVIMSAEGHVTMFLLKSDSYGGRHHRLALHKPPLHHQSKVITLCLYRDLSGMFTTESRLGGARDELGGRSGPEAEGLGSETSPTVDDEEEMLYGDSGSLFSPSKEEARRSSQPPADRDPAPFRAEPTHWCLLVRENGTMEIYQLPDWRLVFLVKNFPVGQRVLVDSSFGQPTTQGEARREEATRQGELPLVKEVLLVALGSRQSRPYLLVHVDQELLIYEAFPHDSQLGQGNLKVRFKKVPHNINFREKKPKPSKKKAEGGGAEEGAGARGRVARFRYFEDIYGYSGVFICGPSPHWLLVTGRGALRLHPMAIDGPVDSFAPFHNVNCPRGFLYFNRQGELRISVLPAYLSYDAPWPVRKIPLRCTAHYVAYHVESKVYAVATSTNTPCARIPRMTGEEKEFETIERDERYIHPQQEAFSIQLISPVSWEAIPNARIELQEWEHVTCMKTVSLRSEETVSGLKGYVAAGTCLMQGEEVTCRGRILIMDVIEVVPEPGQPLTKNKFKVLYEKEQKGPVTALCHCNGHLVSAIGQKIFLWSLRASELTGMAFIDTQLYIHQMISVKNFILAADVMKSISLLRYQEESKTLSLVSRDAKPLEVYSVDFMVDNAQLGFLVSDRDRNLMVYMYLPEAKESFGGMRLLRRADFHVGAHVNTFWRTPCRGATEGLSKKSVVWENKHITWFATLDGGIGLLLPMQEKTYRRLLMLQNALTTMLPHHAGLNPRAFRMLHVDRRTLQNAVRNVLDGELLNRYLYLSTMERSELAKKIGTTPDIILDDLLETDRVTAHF
Outline: (§1)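 Kd was calculated as EC50, taken from a four-parameter log-logistic fit, multiplied by a protein-dependent depletion factor. The assay used HEK293-FT lysate (2.5 mg protein/well) pre-incubated for 1 h at 4°C with free RNA oligos (0 nM to 30 μM), then incubated for 30 min at 4°C with the matching oligos bound through a 5′-amino-C6 linker to NHS-Sepharose beads. Bound proteins were measured by label-free LC-MS/MS and normalised to the control.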

[2] = target: T2, RBM7 (UniProt Q9Y580)
T2 sequence: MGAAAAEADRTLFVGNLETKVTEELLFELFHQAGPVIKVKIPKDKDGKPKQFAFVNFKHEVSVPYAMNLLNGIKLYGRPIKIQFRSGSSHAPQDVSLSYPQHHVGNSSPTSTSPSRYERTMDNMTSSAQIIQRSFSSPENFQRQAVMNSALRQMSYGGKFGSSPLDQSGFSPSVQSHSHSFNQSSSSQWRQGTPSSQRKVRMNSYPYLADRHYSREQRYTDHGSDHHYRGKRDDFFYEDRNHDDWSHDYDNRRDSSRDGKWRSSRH
Outline: as §1

[3] = target: T3, RBMS2 (UniProt Q15434)
T3 sequence: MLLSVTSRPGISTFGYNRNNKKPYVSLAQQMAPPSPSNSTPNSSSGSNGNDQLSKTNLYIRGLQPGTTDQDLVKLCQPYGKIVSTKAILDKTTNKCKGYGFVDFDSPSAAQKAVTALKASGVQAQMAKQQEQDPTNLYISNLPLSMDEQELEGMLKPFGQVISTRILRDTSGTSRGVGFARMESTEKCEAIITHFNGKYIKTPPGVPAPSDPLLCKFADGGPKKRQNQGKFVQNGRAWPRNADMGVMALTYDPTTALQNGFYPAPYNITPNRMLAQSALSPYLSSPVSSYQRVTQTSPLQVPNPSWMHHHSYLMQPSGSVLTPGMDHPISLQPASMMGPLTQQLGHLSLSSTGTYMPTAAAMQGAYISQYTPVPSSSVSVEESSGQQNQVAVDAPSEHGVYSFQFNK
Outline: as §1

[4] = target: RPS16 (UniProt P62249)
Outline: as §1

[5] = target: NCL (UniProt P19338)
Outline: as §1

Sequence of NCL (P19338 whole entry): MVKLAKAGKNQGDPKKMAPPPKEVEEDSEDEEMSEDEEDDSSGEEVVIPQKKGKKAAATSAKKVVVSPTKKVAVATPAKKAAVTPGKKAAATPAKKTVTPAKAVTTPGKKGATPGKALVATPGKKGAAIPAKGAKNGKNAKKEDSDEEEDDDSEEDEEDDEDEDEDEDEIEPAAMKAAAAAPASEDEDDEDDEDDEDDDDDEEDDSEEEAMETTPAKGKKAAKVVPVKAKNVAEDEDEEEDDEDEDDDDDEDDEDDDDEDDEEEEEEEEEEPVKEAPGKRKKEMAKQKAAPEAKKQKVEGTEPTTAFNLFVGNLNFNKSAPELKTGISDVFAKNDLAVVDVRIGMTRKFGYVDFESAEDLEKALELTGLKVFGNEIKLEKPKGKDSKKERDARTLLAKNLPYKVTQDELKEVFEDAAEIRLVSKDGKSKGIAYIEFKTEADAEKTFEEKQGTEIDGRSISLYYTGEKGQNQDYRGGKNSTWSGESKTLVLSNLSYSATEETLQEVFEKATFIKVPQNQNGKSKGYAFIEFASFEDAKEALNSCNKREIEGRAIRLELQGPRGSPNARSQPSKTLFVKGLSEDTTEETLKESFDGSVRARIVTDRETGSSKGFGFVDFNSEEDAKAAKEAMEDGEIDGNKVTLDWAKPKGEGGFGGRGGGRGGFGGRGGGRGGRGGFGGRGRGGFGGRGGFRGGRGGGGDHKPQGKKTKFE

| Sequence | Kd [1] [nM] | Kd [2] [nM] | Kd [3] [nM] | Kd [4] [nM] | Kd [5] [nM] |
| --- | --- | --- | --- | --- | --- |
| AAUAAA | 6.97 | 156 | 158 | 349 | – |
| CUGUCCU | – | – | – | 77 | 86.8 |
| UAUUUAU | 340 | 81.2 | 274 | – | 1770 |
